In patent US20240209341A1 (University of California, published 2024):

What was measured:
[1] = target: T1, recombinant TLR4 ectodomain, His-tagged (Sino Biological) (human, UniProt O00206 24-631); experiment: test-tube co-IP with anti-TLR4 antibody, immunoblot with anti-His antibody
T1 construct: extracellular domain; Bought protein; also called eTLR4; eTLR4-His; not shown: His-tag
Text: FIG. 9: Identifies sequence motifs that contribute to AIBP binding to TLR4: FIG. 9. Identification of the domain in the AIBP molecule responsible for TLR4 binding. A, Human AIBP: signal peptide (aa 1-24), previously uncharacterized N-terminal domain (aa 25-51), and YjeF_N domain (aa 52-288). B, Flag-tagged deletion mutants of human AIBP were co-expressed in HEK293 cells with the Flag-tagged TLR4 ectodomain (eTLR4). Cell lysates were immunoprecipitated (IP) with an anti-TLR4 antibody and immunoblotted (IB) with an anti-Flag antibody. C, His-tagged human (hu), mouse (mo) and zebrafish (zf) AIBP, all lacking the signal peptide, expressed in a baculovirus/insect cell system, were combined in a test-tube with eTLR4-His, followed by IP with an anti-TLR4 antibody and IB with an anti-His antibody. D-H, Binding of His-tagged wild type (wt, 25-288 aa) and the deletion mutant (mut, 52-288 aa) human AIBP to eTLR4, APOA1 and microglia. IP of eTLR4 and wtAIBP or mutAIBP in a test tube with an anti-AIBP antibody; blot and quantification from 3 independent experiments (D). ELISA with plates coated with eTLR4 and incubated with wtAIBP or mutAIBP (n=3) (E). ELISA with plates coated with BSA, wtAIBP or mutAIBP and incubated with APOA1 (F). […]

[2] = target: T1, recombinant TLR4 ectodomain, His-tagged …; experiment: pull-down with BE-1 anti-AIBP antibody, immunoblot
Method: (§1) Co-immunoprecipitation assays for TLR4 binding. Pull down assay of eTLR4 and wtAIBP or mutAIBP in test tube was performed by mixing 1 μg of eTLR4 (Sino Biological) and AIBP in PBS containing 0.5% Triton X-100 and incubating for 1 hour at room temperature. Samples were precleared by adding Protein A/G Sepharose beads at room temperature for 30 min, followed by addition of 1 μg of BE-1 monoclonal anti-AIBP antibody and incubation for 2 hours. Protein A/G Sepharose beads were added and incubated for an additional one hour, followed by 5 washes with PBS containing 0.5% Triton X-100 and immunoblot of samples.
FIG. 9: Identifies sequence motifs that contribute to AIBP binding to TLR4: FIG. 9. Identification of the domain in the AIBP molecule responsible for TLR4 binding. A, Human AIBP: signal peptide (aa 1-24), previously uncharacterized N-terminal domain (aa 25-51), and YjeF_N domain (aa 52-288). B, Flag-tagged deletion mutants of human AIBP were co-expressed in HEK293 cells with the Flag-tagged TLR4 ectodomain (eTLR4). Cell lysates were immunoprecipitated (IP) with an anti-TLR4 antibody and immunoblotted (IB) with an anti-Flag antibody. […] IP of eTLR4 and wtAIBP or mutAIBP in a test tube with an anti-AIBP antibody; blot and quantification from 3 independent experiments (D). […]

human APOA1 = target: T2, human APOA1 (human, UniProt P02647 25-267); experiment: ELISA, AIBP-coated plates incubated with 5 µg/ml human APOA1
T2 construct: also called ApoA-I
Method: ELISA binding assays. To assess AIBP-TLR4 binding, 96-well plates were coated with 5 μg/ml of eTLR4, washed three times with PBS containing 0.05% Tween-20, blocked with PBS containing 1% BSA, and incubated with wtAIBP or mutAIBP, followed by 2 μg/ml of a biotinylated BE-1 anti-AIBP monoclonal antibody. To assess AIBP-APOA1 binding, plates were coated with BSA, wtAIBP or mutAIBP, washed, blocked, and incubated with 5 μg/ml of human APOA1 (a gift from Dmitri Sviridov, Baker Heart and Diabetes Institute, Melbourne, Australia), followed by a biotinylated anti-APOA1 antibody (Academy Bio-Medical Company, RRID:AB_1238781). In both assays, neutravidin-AP was added and incubated for 45 minutes at room temperature, followed by LumiPhos 530 (Lumigen) for 90 min, and luminescence was measured using a luminescence plate reader (BioTek, Winooski, Vermont).
FIG. 9: Identifies sequence motifs that contribute to AIBP binding to TLR4: FIG. 9. Identification of the domain in the AIBP molecule responsible for TLR4 binding. A, Human AIBP: signal peptide (aa 1-24), previously uncharacterized N-terminal domain (aa 25-51), and YjeF_N domain (aa 52-288). […] IP of eTLR4 and wtAIBP or mutAIBP in a test tube with an anti-AIBP antibody; blot and quantification from 3 independent experiments (D). […]

[3] = target: T1, recombinant TLR4 ectodomain, His-tagged …; experiment: co-immunoprecipitation with recombinant ectodomain of TLR4; proteins from E. coli
[4] = target: T1, recombinant TLR4 ectodomain, His-tagged …; experiment: pull-down with anti-AIBP antibody, western blot with anti-his antibody
Method: as §1
A pulldown assay was performed using compounds as provided herein. Compounds 3, 7, 8 or 9 and other constructs described in FIGS. 13 and 14 were purified from either a baculovirus (BD Bioscience) or CHO (ExpiCHO, Expression Systems, ThermoFisher) cell expression system and incubated with TLR4 protein (Sino biological). Pull-down was performed with anti-AIBP antibody described. Bound TLR4 to AIBP was detected by western blot with an anti-his antibody (both modified AIBP and TLR4 have his-tag). Detailed experimental information is provided in example 1 as to pull down method.

T1 sequence (O00206 24-631): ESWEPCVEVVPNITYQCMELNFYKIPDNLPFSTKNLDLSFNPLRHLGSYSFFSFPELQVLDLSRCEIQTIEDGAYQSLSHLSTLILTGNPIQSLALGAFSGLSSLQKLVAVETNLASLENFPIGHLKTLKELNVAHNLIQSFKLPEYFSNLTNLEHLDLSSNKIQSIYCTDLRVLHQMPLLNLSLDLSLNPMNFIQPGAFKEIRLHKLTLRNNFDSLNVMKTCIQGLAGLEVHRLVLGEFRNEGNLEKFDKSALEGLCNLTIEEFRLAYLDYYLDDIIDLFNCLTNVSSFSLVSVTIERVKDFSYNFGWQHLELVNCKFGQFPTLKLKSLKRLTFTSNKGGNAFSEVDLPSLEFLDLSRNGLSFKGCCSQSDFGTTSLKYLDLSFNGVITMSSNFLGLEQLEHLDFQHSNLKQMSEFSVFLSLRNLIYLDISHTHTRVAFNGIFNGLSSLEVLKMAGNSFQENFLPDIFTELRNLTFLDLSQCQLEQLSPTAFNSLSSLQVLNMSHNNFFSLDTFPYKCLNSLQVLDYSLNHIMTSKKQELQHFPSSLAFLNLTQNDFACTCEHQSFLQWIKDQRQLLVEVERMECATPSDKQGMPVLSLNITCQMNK
T2 sequence (P02647 25-267 limits assumed): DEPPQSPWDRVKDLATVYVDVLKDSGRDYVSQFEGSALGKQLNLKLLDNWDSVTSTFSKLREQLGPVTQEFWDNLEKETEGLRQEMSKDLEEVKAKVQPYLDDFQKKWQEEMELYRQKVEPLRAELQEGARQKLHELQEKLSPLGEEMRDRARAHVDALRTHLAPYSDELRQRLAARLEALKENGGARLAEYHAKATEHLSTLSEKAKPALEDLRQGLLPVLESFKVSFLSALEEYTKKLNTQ

B1: His-tagged zebrafish (zf) AIBP lacking the signal peptide (other, UniProt Q6DHK1 29-283, looked up)
chain: SSAASNIYSKHLTHRPTCTMANTGVKYLGQEEAQQIDEELFSDFSFSVDQLMELAGLSCATAVAKGYPVTSLLKSPARVLVICGPGNNGGDGLVCARHLKLFGYEPSVLYPKRPNKQLFQNLSIQCQKMEIPFLTEMPEADLIDEAYSLVVDAIFGFSFKGAVREPFGEILSQLKKITVPIASVDIPSGWDVEKGCPDGIQPDMLISLTAPKKSAALFKGRFHFLGGRFVPPVLEQKYQLNLPQYPGTECVFQLN
notes: mature; also called zebrafish wild type AIBP; not shown: N-terminal His-tag of the pAcHLT-C vector
binding result [1]: no binding

B2: His-tagged deletion mutant (mut, 52-288 aa) human AIBP (other)
chain: MASTVVKYLSQEEAQAVDQELFNEYQFSVDQLMELAGLSCATAIAKAYPPTSMSRSPPTVLVICGPGNNGGDGLVCARHLKLFGYEPTIYYPKRPNKPLFTALVTQCQKMDIPFLGEMPAEPMTIDELYELVVDAIFGFSFKGDVREPFHSILSVLKGLTVPIASIDIPSGWDVEKGNAGGIQPDLLISLTAPKKSATQFTGRYHYLGGRFVPPALEKKYQLNLPPYPDTECVYRLQ
notes: Baculovirus/insect cell expression, pAcHLT-C vector; also called mutAIBP; mut AIBP; not shown: N-terminal His-tag of the pAcHLT-C vector
binding result [2]: no binding
binding result (human APOA1): binds

B3: d51 AIBP-his (expressed in E. coli) (other)
chain: B2 chain
notes: not shown: his tag, read from the name as C-terminal
binding result [3]: no binding

B4: cleaved His-d24 AIBP (other)
chain: GSPGLDGICSRQTIACRSGPTWWGPQRLNSGGRWDSEVMASTVVKYLSQEEAQAVDQELFNEYQFSVDQLMELAGLSCATAIAKAYPPTSMSRSPPTVLVICGPGNNGGDGLVCARHLKLFGYEPTIYYPKRPNKPLFTALVTQCQKMDIPFLGEMPAEPMTIDELYELVVDAIFGFSFKGDVREPFHSILSVLKGLTVPIASIDIPSGWDVEKGNAGGIQPDLLISLTAPKKSATQFTGRYHYLGGRFVPPALEKKYQLNLPPYPDTECVYRLQ
notes: also called putative cleavage product of His-d24 AIBP
binding result [4]: no binding
